In publication PMC5454392, “Selective BET bromodomain inhibition as an antifungal therapeutic strategy” (Nature Communications, 2017):
Numbered stars: 1 amine (or outer) side, 2 acyl side, 3 side chain; on linkers, the order of the positions; unused ones are H or OH. Square brackets hold non-standard residues; d marks the D form. Ends that are not written are not given here. Arg(Me2a) = CN(C)C(=N)NCCC[C@H](N)C(=O)O; Kac = CC(=O)NCCCC[C@H](N[*:1])C(=O)[*:2]; Lys(Me3) = C[N+](C)(C)CCCC[C@H](N)C(=O)O; Arg(Me2s) = CN=C(NC)NCCC[C@H](N)C(=O)O; pT = C[C@@H](OP(=O)(O)O)[C@H](N)C(=O)O; Lys(Me2) = CN(C)CCCC[C@H](N)C(=O)O; pS = N[C@@H](COP(=O)(O)O)C(=O)O; Lys(Me) = CNCCCC[C@H](N)C(=O)O; Me2a = not defined here; me2a = not defined here

T1: CaBdf1 BD2 (GST-tagged, wild-type) (Candida albicans (strain SC5314 / ATCC …, UniProt Q5A4W8))
T1 chain: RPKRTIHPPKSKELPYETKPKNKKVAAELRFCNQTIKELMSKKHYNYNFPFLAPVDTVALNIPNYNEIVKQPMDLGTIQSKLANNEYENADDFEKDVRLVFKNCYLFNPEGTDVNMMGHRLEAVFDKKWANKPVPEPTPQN

T2: CaBdf1 BD1 (GST-tagged, wild-type) (Candida albicans (strain SC5314 / ATCC …, UniProt Q5A4W8))
T2 chain: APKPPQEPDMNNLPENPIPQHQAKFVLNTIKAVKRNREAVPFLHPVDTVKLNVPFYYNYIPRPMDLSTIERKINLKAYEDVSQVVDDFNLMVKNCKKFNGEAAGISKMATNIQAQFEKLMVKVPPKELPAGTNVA

B1: H3 1-19 (peptide)
chain: ARTKQTARKSTGGKAPRKQ
modifications: A Rme2a T Kme1 Q T A R Kme2 S T G G K A P R K Q
B2: H4 1-19 (peptide)
chain: SGRGKGGKGLGKGGAKRHR
modifications: S G Rme2s G K G G K G L G K G G A K R H R
B3: H3 16-35 (peptide)
chain: PRKQLATKAARK(Me3)SAPATGG
B4: H3 1-19 (peptide)
chain: ARTKQTARKSTGGKAPRKQ
modifications: A R T K Q T A R Kac S T G G K A P R K Q
B5: H3 1-19 (peptide)
chain: ARTKQTARKSTGGKAPRKQ
modifications: A R T K Q T A Rme2a K S T G G K A P R K Q
B6: H4 1-19 (peptide)
chain: SGRGKGGKGLGKGGAKRHR
modifications: pS G R G K G G K G L G K G G A K R H R
B7: H2B 1-19 (peptide)
chain: PDPAK(Ac)SAPAPKKG[pS]KKAVT
B8: H3 1-19 (peptide)
chain: ARTK(Me3)QTAR(Me2a)K(Ac)STGGKAPRKQ
modifications: reading uncertain
B9: H3 26-45 (peptide)
chain: RKSAPATGGVKKPHRYRPG
modifications: R K S A P A T G G V Kac K P H R Y R P G
B10: H4 1-19 (peptide)
chain: SGRGKGGKGLGKGGAKRHR
modifications: S G R G K G G Kac G L G K G G A Kac R H R
B11: H3 1-19 (peptide)
chain: A[Arg(Me2s)]T[Lys(Me2)]QTARKSTGGKAPRKQ
B12: H3 1-19 (peptide)
chain: ARTK(me2)QTAR(me2a)K(me2)STGGKAPRKQ
modifications: reading uncertain
B13: H3 1-19 (peptide)
chain: ARTKQTARKSTGGKAPRKQ
modifications: A Rme2a T Kme1 Q T A Rme2a K S T G G K A P R K Q
B14: H3 1-19 (peptide)
chain: AR(Me2a)TK(Ac)QTAR(Me2a)K(Ac)STGGKAPRKQ
modifications: reading uncertain
B15: H3 1-19 (peptide)
chain: ARTKQTARKSTGGKAPRKQ
modifications: A R T Kme3 Q T A Rme2s Kme2 S T G G K A P R K Q
B16: H3 1-19 (peptide)
chain: ARTKQTARKSTGGKAPRKQ
modifications: A R T K Q T A Rme2a Kme2 pS T G G K A P R K Q
B17: H3 1-19 (peptide)
chain: ARTKQTARKSTGGKAPRKQ
modifications: A Rme2s T Kme2 Q T A Rme2a Kme2 S T G G K A P R K Q
B18: H4 1-19 (peptide)
chain: SGRGKGGKGLGKGGAKRHR
modifications: pS G R G Kac G G K G L G K G G A K R H R
B19: H3 1-19 (peptide)
chain: ARTKQTARKSTGGKAPRKQ
modifications: A Rme2a T Kac Q T A R Kme2 S T G G K A P R K Q
B20: H2B 1-19 (peptide)
chain: PDPAK(Ac)SAPAPKKG[pS]K(Ac)KAVT
B21: H3 16-35 (peptide)
chain: PRKQLATKAARK[pS]APATGG
B22: H3 1-19 (peptide)
chain: A[Arg(Me2s)][pT]K(Me)QTARKSTGGKAPRKQ
B23: H3 1-19 (peptide)
chain: A[Arg(Me2s)][pT]KQTARKSTGGKAPRKQ
B24: H3 1-19 (peptide)
chain: A[Arg(Me2a)]T[Lys(Me2)]QTAR[Lys(Me2)]STGGKAPRKQ
B25: H3 1-19 (peptide)
chain: ARTKQTARKSTGGKAPRKQ
modifications: A Rme2s T Kme3 Q T A Rme2s Kme2 S T G G K A P R K Q
B26: H3 16-35 (peptide)
chain: PRKQLATKAA[Arg(Me2a)]K[pS]APATGG
B27: H3 1-19 (peptide)
chain: ARTKQTARKSTGGKAPRKQ
modifications: not fully specified
B28: H3 1-19 (peptide)
chain: A[Arg(Me2a)]T[Lys(Me)]QTA[Arg(Me2s)][Lys(Me)]STGGKAPRKQ
B29: H3 1-19 (peptide)
chain: ARTKQTARKSTGGKAPRKQ
modifications: A R T K Q T A R Kme3 pS T G G K A P R K Q
B30: H3 1-19 (peptide)
chain: ARTKQTARKSTGGKAPRKQ
modifications: A R T K Q T A Rme2s Kme1 S pT G G K A P R K Q
B31: H3 1-19 (peptide)
chain: A[Arg(Me2a)]T[Lys(Me)]QTAR[Kac]STGGKAPRKQ
B32: H3 1-19 (peptide)
chain: ARTKQTARKSTGGKAPRKQ
modifications: A Rme2s T Kac Q T A Rme2a Kme3 S T G G K A P R K Q
B33: H3 1-19 (peptide)
chain: ARTKQTARKSTGGKAPRKQ
modifications: A Rme2s pT Kme3 Q T A R K S T G G K A P R K Q
B34: H2a 1-19 (peptide)
chain: [pS]GRGKQGGK(Ac)ARAK(Ac)AKSRSS
B35: H3 1-19 (peptide)
chain: ARTKQTARKSTGGKAPRKQ
modifications: A R T Kac Q T A Rme2a Kac S T G G K A P R K Q
B36: H3 1-19 (peptide)
chain: ARTKQTARKSTGGKAPRKQ
modifications: A R T K Q T A R K pS T G G K A P R K Q
B37: H2a 1-19 (peptide)
chain: [pS]GRGKQGGKARAK(Ac)AKSRSS
B38: H3 1-19 (peptide)
chain: A[Arg(Me2a)][pT][Lys(Me3)]QTARKSTGGKAPRKQ
B39: H3 16-35 (peptide)
chain: PRKQLATKAAR(Me2s)KSAPATGG
B40: H3 1-19 (peptide)
chain: AR(me2s)TK(Me)QTARKSTGGKAPRKQ
B41: H3 16-35 (peptide)
chain: PRKQLATKAARK(Me2)[pS]APATGG
B42: H3 1-19 (peptide)
chain: A[Arg(Me2s)]T[Lys(Me)]QTA[Arg(Me2a)][Lys(Me3)]STGGKAPRKQ
B43: H4 1-19 (peptide)
chain: SGRGKGGKGLGKGGAKRHR
modifications: S G Rme2s G Kac G G Kac G L G Kac G G A K R H R
B44: H3 1-19 (peptide)
chain: ARTKQTARKSTGGKAPRKQ
modifications: A Rme2s T Kac Q T A R Kme3 S T G G K A P R K Q
B45: H3 1-19 (peptide)
chain: ARTKQTARKSTGGKAPRKQ
modifications: A Rme2s T Kac Q T A Rme2a Kac S T G G K A P R K Q
B46: H3 16-35 (peptide)
chain: PRKQLATKAAR(Me2a)K(Ac)[pS]APATGG
modifications: reading uncertain
B47: H2B 1-19 (peptide)
chain: PDPAKSAPAPKKG[pS]KKAVT
B48: H4 1-19 (peptide)
chain: SGRGKGGKGLGKGGAKRHR
modifications: S G Rme2a G Kac G G K G L G K G G A K R H R
B49: H3 16-35 (peptide)
chain: PRKQLATKAAR(Me2a)K(Me)[pS]APATGG
modifications: reading uncertain
B50: H3 1-19 (peptide)
chain: ARTKQTARKSTGGKAPRKQ
modifications: A R T K Q T A Rme2s Kme2 S pT G G K A P R K Q

How the values were obtained:
[1] = target: T1, CaBdf1 BD2 (GST-tagged, wild-type); assay: histone peptide array (Active Motif MODified), 1 uM GST-tagged bromodomain, anti-GST detection, normalized mean intensity
[2] = target: T2, CaBdf1 BD1 (GST-tagged, wild-type); assay: as above

Binder | binding score [1] | binding score [2]
B1 | 0.0037 | 0.00326
B2 | 0.00666 | 0.00399
B3 | 0.00851 | 0.00616
B4 | 0.0037 | 0.0087
B5 | 0.00222 | 0.00326
B6 | 0.00444 | 0.00471
B7 | 0.00074 | 0.00689
B8 | 0.00888 | 0.0359
B9 | 0.0122 | 0.0344
B10 | 0.00999 | 0.0228
B11 | 0 | 0.0029
B12 | 0.00259 | 0.000725
B13 | 0.00259 | 0.00435
B14 | 0.0107 | 0.0413
B15 | 0.00407 | 0.00254
B16 | 0.00259 | 0.00471
B17 | 0.00666 | 0.0029
B18 | 0.00555 | 0.0167
B19 | 0.00407 | 0.0112
B20 | 0.174 | 0.0656
B21 | 0.00555 | 0.00218
B22 | 0.0037 | 0.00181
B23 | 0.00074 | 0.00326
B24 | 0.00222 | 0.00399
B25 | 0.00407 | 0.0029

Binder | binding score [1] | binding score [2]
B26 | 0.00407 | 0.00435
B27 | 0.00259 | 0
B28 | 0.0037 | 0.00471
B29 | 0.00333 | 0.00363
B30 | 0.00407 | 0.0029
B31 | 0.00592 | 0.0359
B32 | 0.00407 | 0.00471
B33 | 0.00185 | 0.00363
B34 | 0.00592 | 0.0642
B35 | 0.0126 | 0.0464
B36 | 0.00074 | 0.00181
B37 | 0.02 | 0.0906
B38 | 0.00074 | 0.00725
B39 | 0.0037 | 0.00616
B40 | 0.00037 | 0.00326
B41 | 0.00074 | 0.0029
B42 | 0.00592 | 0.0058
B43 | 0.332 | 0.175
B44 | 0.00259 | 0.00616
B45 | 0.00851 | 0.0573
B46 | 0.00222 | 0.0058
B47 | 0.00148 | 0.00326
B48 | 0.00703 | 0.0105
B49 | 0.00703 | 0.0029
B50 | 0.00259 | 0.00906
